Assay results reported in paper PMC5895659, “Mechanistic and Structural Insights Into the Unique TetR-Dependent Regulation of a Drug Efflux Pump in Mycobacterium abscessus” (Frontiers in Microbiology, 2018).
Where a chain is given by its changes, count along the chain named.

Columns and labels:
[1] = biological target: the molecule itself; assay: SEC; ENrich SEC 650 column, 50 mM Tris-HCl pH 8, 200 mM NaCl, 5 mM beta-mercaptoethanol, 0.4 mL/min, 4 °C; MAB_4384 at 3.9 mg/mL; apparent mass from a calibration curve (42.6 kDa against 24.7 kDa theoretical)
MAB_4384 (D14N/F57L) = biological target: T1, MAB_4384 (D14N/F57L) (Mycobacterium abscessus subsp. …, UniProt B1MJU8 1-221, D14N;F57L); assay: EMSA; fully abrogated; EMSA: 280 nM fluorescein probe, 1X TAE, 1 h, room temperature, 6% native PAGE in 1X TAE; SEC: 50 mM Tris-HCl pH 8, 200 mM NaCl, 5 mM beta-mercaptoethanol, 4 C; settings: protein: recombinant; tags: Trx-His6 tag removed by TEV; residual Gly at N-terminus; chain copies: 2; label: 5' fluorescein; blunt
T1 sequence: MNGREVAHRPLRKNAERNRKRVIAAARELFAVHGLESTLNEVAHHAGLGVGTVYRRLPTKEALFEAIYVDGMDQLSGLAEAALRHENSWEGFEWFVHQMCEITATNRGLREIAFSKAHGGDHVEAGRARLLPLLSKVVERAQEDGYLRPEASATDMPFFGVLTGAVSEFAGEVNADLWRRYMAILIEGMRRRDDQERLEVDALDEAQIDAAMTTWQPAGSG

[2] = biological target: T2, MAB_4384 (TetR regulator) (Mycobacterium abscessus subsp. …, UniProt B1MJU8 1-221); assay: EMSA; 280 nM probe; EMSA: 280 nM fluorescein probe, 1X TAE, 1 h, room temperature, 6% native PAGE in 1X TAE; SEC: 50 mM Tris-HCl pH 8, 200 mM NaCl, 5 mM beta-mercaptoethanol, 4 C; settings: protein: recombinant; tags: Trx-His6 tag removed by TEV; residual Gly at N-terminus; chain copies: 4; label: 5' fluorescein; blunt
[3] = biological target: T2, MAB_4384 (TetR regulator); assay: competition; cold probe vs 280 nM labeled Probe 1; dose-dependent decrease; EMSA: 280 nM fluorescein probe, 1X TAE, 1 h, room temperature, 6% native PAGE in 1X TAE; SEC: 50 mM Tris-HCl pH 8, 200 mM NaCl, 5 mM beta-mercaptoethanol, 4 C; settings: protein: recombinant; tags: Trx-His6 tag removed by TEV; residual Gly at N-terminus; chain copies: 4; blunt
[4] = biological target: MAB_4384 (TetR regulator) (Mycobacterium abscessus subsp. …, UniProt B1MJU8 1-221); assay: competition; excess non-related labeled probe; shift of Probe 1 maintained; EMSA: 280 nM fluorescein probe, 1X TAE, 1 h, room temperature, 6% native PAGE in 1X TAE; SEC: 50 mM Tris-HCl pH 8, 200 mM NaCl, 5 mM beta-mercaptoethanol, 4 C; settings: protein: recombinant; tags: Trx-His6 tag removed by TEV; residual Gly at N-terminus; chain copies: 4; label: 5' fluorescein; blunt
[5] = biological target: T2, MAB_4384 (TetR regulator); assay: EMSA; comparable to Probe 1; EMSA: 280 nM fluorescein probe, 1X TAE, 1 h, room temperature, 6% native PAGE in 1X TAE; SEC: 50 mM Tris-HCl pH 8, 200 mM NaCl, 5 mM beta-mercaptoethanol, 4 C; settings: protein: recombinant; tags: Trx-His6 tag removed by TEV; residual Gly at N-terminus; chain copies: 4; label: 5' fluorescein; blunt

B1: MAB_4384 TetR regulator (natural protein)
chain: T1 sequence with N14D, L57F
notes: MAB_4384, TetR family transcriptional repressor of Mycobacterium abscessus subsp. abscessus CIP104536T; amplified from genomic DNA with the MAB_4384_full primers; theoretical mass 24.7 kDa; the account of the structure (chain A modelled Asp14 to Thr213, first thirteen and last eight residues not visible) implies residues 1-221; also called wild-type MAB_4384; source: E. coli BL21 Rosetta 2 (DE3), …
stoichiometry N [1]: 2

B2: Probe 1 (IRS5/L5 operator) (dsDNA)
DNA 1: CACTTCGCCATAAGTGGATTGACTCTATCCACTTTTACCCATAGA
DNA 2: TCTATGGGTAAAAGTGGATAGAGTCAATCCACTTATGGCGAAGTG
binding result (MAB_4384 (D14N/F57L)): no binding | binding result [2]: binds

B3: Probe 1 unlabeled (dsDNA)
DNA 1: B2 DNA 1
DNA 2: B2 DNA 2
binding result [3]: binds

B4: Non-specific probe (dsDNA)
DNA 1: ATGGAACTTGAAGGACTGACCGCGTTG
DNA 2: CAACGCGGTCAGTCCTTCAAGTTCCAT
binding result [4]: no binding

B5: Probe 3 (flanks randomly changed) (dsDNA)
DNA 1: TCTGGATAAGCAAGTGGATTGACTCTATCCACTTCCGAAACCGAC
DNA 2: GTCGGTTTCGGAAGTGGATAGAGTCAATCCACTTGCTTATCCAGA
binding result [5]: binds
